Measurements reported in a protein production outcome set (Wang et al. 2014).

Assay: label from the status in PepcDB records
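Further: failed if final PepcDB status was selected cloned or expressed and not failed if soluble or beyond.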

Sequence | protein production
MWPASRCASDSSLQCGRPNDRIPMSDIAVLINTAVAVLAAVLLIVRFRVNPVISLILASVYLGLAVGLGVEKTVKTITGGFGEIMVDVGLLIAFGVLMGSILNQSGAIRRLVEHLLKTFGPKRLPYTMGLAIGTVLQSIFLDVLLVISAPLARKLAPKIGKLGTARMATAMAIALECGIVFTVPGVASLALAGLLNVPLGKMLLFGLLLVIPTIIISIAIMTFLFRRGFWNEAKDEDHTFVAEEDSEGEEPTDGGAATVPPTANSERGTAASSAQPAGGSVAVVERERKEAPLILLFAPLLTSLLLIGAGAILEILEISMPWLQLLGEPVIALLIGLIGTCLVTRAAIGQKKVEEAIAVGFKESGQILILTGVGGSLAATVAAAGLGDILGGFFSASTVAPLLVVWAIAAVLHIAVGSVTLSAITAAGLLAPIAPAIGLDPVLLALAAGAGSLFMVHVTSNTFWLLQSLLGQSVRGALKSVTVGVSVASVVAILLILPMSLLF | failed
MWRVRCKAKGGTHLLQGLSSRTRLRELQGQIAAITGIAPGSQRILVGYPPECLDLSDRDITLGDLPIQSGDMLIVEEDQTRPKASP | not failed
MWRYRSPEMPLTESFLDLMLIPIIGFGLAVILLIGFFLLYQEVGIFKNLKFLVIRKNNPFFILALFCLITGLALGLVGYWGILEPKLGAADLQALRRNLIILSLLLFGVTFRQYLFDLIKPVTTMAIWRKIGTFNYKNRIAILTYVLLGLIALAWMAPMASTKIIFSINDHTSHIGYIVQGRMALEEGQFPLRVAPLENFGFRYPGFQFYSQLPYFFGAIIYKFLTPTNPYTAYKILLWSALWLGGIFIYRVGFFFTRSQIAAILGGVTYMSAPYFLNNVHARGAFTEAIAQGILAIVLFYAIQTFYYPHYRHLILGALAWCALGLTHIITFVYTTIFIALLGAIFLVKNKPNHWQKGITYISLSYIWAWLLALYFLAPVALESGSLAIRRQIQAINPFNTTDITPIANLLAPNSLPHQPTELGIAPTYGFHPAVGWILLAGFGTVIYFVFAGKSLPRRLWRSQPWLIPLLSVFILALFLTWSPVNIWNLLPRQLWVTQFTFRFLTHVMWSGALLTTLAIILIFRERLRSRHLILGILIIVIASRPWLPIPRGTVTVEELLQDPLFRYSGALDYLYRLPNKAVPVNTKAQSAVEKIYGKAELQLLHPDWIPGYLSWDVFINGPLPIDVDIPYPAWPETEKPTLVLQGRVPMDKIKSQANLIVFVDQQPLTSIPLTQEELKVKVPFTDVKFAGNAFELKFIVEGETTDGNPLYIRMNHLYFDDFSAANTLLPVHATKEMCNQKGVVTNCPVEMPAEAGTVQLPILYYPAMQQVVVDNQPVKGFFTNYRDFNLLSLNLSPGKHQIQVKFTGLIWANFISLLAWLTLIITAIALKFYPRKPEQTIFK | failed
MWTDAGGQVHEAASGDVRIASLVPSITELLFDLGLADQLVARTGFCIHPEPAVRAVAKVGGTKDVKLDRLRALAPTHVVVNIDENRRETVDEIRTFVPHVIVTHPCAPEDNLALYRLLGGIFGRRPQAEALVGQLRGELDAIQAQTWPARRVLYAIWQDPWMTVSRATYISRMLALVNWATWPDDADTSDTPAACVDGDCSRPNAPGERYPTFRWSDALVRELDAVLLSTEPYRFTEDHADALERQIGKPVLLVDGEMLSWYGSRAVAGARYLRSLAQGFLEHHHHHH | not failed
MWTDSREALSDLQLGECERVLDVGCGTGELTRVLREETDGTVVGLDADTDLLAAAGDPTVCGDATQLPFDDDSFDLVVCQALLINLPDPEVAVREFARVATDRVAAIEPNNAAVTVESTVDAEPMLARRARRLFLDGVRTDVTLGSDAADVFSDAELTVVSTTQYDQEQQIEPPYDDAAMQAARRKATGTGLAHDRETILNGEATPAEYDALRERWRSMGRDVVEQMQDEAYERHETVPFFVTVGEIP | failed
MWVDGMAKVVEVGRICVKTRGREAGRKCVIVDIIDENFVLVTGPKSLTGVRRRRVNIDHIEILDKKVDIQKGASDEEVLKALEEAGLADFMREPVRIARITPFTLLEHHHHHH | not failed
MWVRVPPPAPFSIFLSPGDDIVKRRKSTRTSSFGVKGRESHDSSPFYSRAIYSNFSLPKPSEEDLIENPLPENLLDKVIEGDAREVLKKIPDCSIHLMVTSPPYNVGKEYDEDMTLDEYLEFIEEIMKEVYRVLVWGGRACFNVANLGRKPYIPLHAYLIHLFEKIGFLIRGEIIWDKGEAVSGSSTAWGSWMSPVNPVLRDQHEYIIVMSKGDLKRRKPSDREAKSTITREEFLEFTRSVWKFPPESAKRVGHPAPFPEELPYRCIQLYTFKGDVVLDPFAGVGTTCVAAVKTGRHFVGIEINPEYVKKAEERVKDILSKPTLFEDHC | failed
MYAIAEDTLPARVLKELLLYRRRYPEHRQSASEADEIRRIEQVQLPRIAAFIEAGEPIEFVLPAFPAKSPNPGKVLDSRPDMAERLSLSFLNHLCQRIQLFYAPGAKITVCSDGRVFGDLVRIGDAHISAYQDALRLMIEEIGATHIGVFNLEDVRAFEAQRDNHEQLRQLLIGGYAEPLESIRETLLASEEGLLLYRAITRFLYEDGLTPDYQGSKTALQRDAKERAYGVIQRSWAWGALLADQFPRAIRLSIHPQPADSLKFGIHMMPTRDDWLTPWHGVAVNTEDRFVLMKRSEVLELGGELVQINGQPSHYRLPARAARRAAVALEHHHHHH | failed
MYALIHHGRRLVQLQKLSNFRVSVQNGSALSNSFSFASVADATLIDSLKGNNFTVSYLVDSLGLTTKLAESISKKVSFEERRNPDSVLSLLTSYGFTKSQISSIITIYPRLLALDAEKSIAPKLQSLQSRGASSSELTQIVSTVPKILGKRGHKSITVYYDFVKDIIEADKSSSYEKLCHSFPQGNKKNKIRNISVLRELGVAQRLLFPLLISDGQPVCGKERFEESLKKVVEMGFDPETTKFVEALRVIYRMSDKTIEEKVNVYKRLGFGVADVWAIFKKWPSFLSYSEKKITHTFETLKSCGLLKHEVLLLLKKHPKCICSSEQKIVNSIETFLGLGFSRDEFAMMVKRYPQCIDYTAETVKKKTEFIVKNMNWPLEALVSIPQVFGYSLEKRTVPRCNVIKTLISKGLMKDGSEAPPMSSVLTSTDQAFLRRYVMKHDKLAPELMAIFTGENGK | failed
MYCDHFGFSEHPFALTPNPAFLFLSSRHQEAFAHLLYGIDTRAGFIELSGEVGTGKTTVIRTFLNQLDPETHRTALVFNPTVSPLGLLQGIIREFGLPGTSTEKSELLETLNRFLLDENRAGHTVVLVIDEAQNLSPEVLEQIRLISNLETERDKLIQIVLVGQPELRHLLARQELRQLDQRITVRYHLEPMGLDDTKNYIRHRIRIAAGGREPVIFSAGAVKKIFGFSGGLPRLINAACDRALLLAYTTEAREVSPAMAAAAIADVATEARPPSPSRRFAVAAALILVAALGAGTFAVTRKGGESLPSASPPPTEPAASGEQPLKRTAALAGLAAVPEKDNLSAAVNTILRSWQAPPVASSPSPADLRSLARERGLTVTELSGTLNDLARLDTPALLHITLPQGGKRLVALTSLDKGHIGIDPPIAGHSTLTGGELSTLWSGRASVIWKNFHGIPSRLKPGGRSKAVGQLQELLKGAGYYAGRISGTYDTVTQEAIRSFQTAEGLDADGRTGEKTLLLLYRRAGGFFPPGLTQGKTAARTEAGDRSRGKVAQTRSNGEQSRLEHHHHHH | failed
MYDCSHGAGSSQSPAAEPGPTPRRRHTIHRLAHNDPVNDLDFLLTPEGRALLDEVRDTDPVRELAVATRLRRTHPAELVSAALGQARLRQRAVAKFGAEDAGRMFFTPNGVEQSTRASVAAYRAGRFAALGVASVADLCCGIGGDAIALARAGIRVLAVDRDPVTAAAARANADALGLAGLIEVREADVTEVDTEAYDAVFVDPARRGGRGRIFDPEAYSPPLSWAVRAARTASRAAALKVAPGIPHEAVPEDAEAEWISDGGDVKEAVLWFGAGAAPGAVRATLLPGPRTLPGTGLPDPEVRTPGRYLYEPDGAVIRAHLVAEVAAQVGGGLLDATIAYVTADELLPTPYATAYEITDRMPFNVKKLKALLRERGVGTLTVKKRGSAVEPEELRRKVKPQGPNSATVFLTRVAGAPTMLVGHPAR | failed
MYEAGLAEGESAYGHGGYISVPELPAGVAVRNSRRPDIIQESSYLRILAPAGGWLAAATLEKLADCAETYGRGLVHLTSGGTIEIYTGREQMLPLVRELNSGGLDVGSTGDDLRCLTACCGPVRCEHALVDAPALATYLGQRFIDDQQYPGYPQKVKSAVAGCPNDCIRAMMQKDHSFIGVYRDWPMVDGEMLAAWREKGGDLNGLLAACPAGALTLVGDTLEVDKERCWRCMACINYCPAIRPGRERGVAWVAGGKYGHRGPQGPMVGFVLVPFIPVADDDYTAVGDIFGAFLEFWADNAKKKERVGDFIARVGPLKILRELGLEAQPQILLSPKRNVY | failed
MYEPGTEQINCNGRLIELPTLEVVRPAPKMPSDANIDWLLHIYFTRREFTRCRRLIERELNRHLNPEYLYFVQGLIDREEGNHIEALRHLQKSAELNPRNIETYKEIGRTLYIMGRFSQALGVFREAEQRSSRQDHEIYHYLGELLYRAATTQSQKDVASQQQDEARTYFELAVQSGRKLESYVRLAELYRKDKQYQKAIEILENCLHLTPENSEVLIEISVLYLKINETQKAHDRLAEVVSIERKCSPKGLLAFGAILQSRNDIDGALSKYSQIANAEPEIAELWNNIGLCFFKKQKFIVAISSLRKSVWLSPLNYNALYNLSLIYIASEQYASAFHTLAAAINLRKDNAECYMLLGLCLRKLDDMENAFVALERASSMATGQQGAGRNPLVVLNFALFCYETGRLALSTEQYNRFMSQAQDLLLPTEYKFQATKLKSLLRISNQGNGILLDSADMGESDLGHNRATELLPDELPLEVNAVVSQN | failed
MYESANVSDDADRTAFRRAEKKYKLYYEQDSKFSRKKKLPKPIDLSELLDFNLISQNFNNDGVLPDGIRVSKVDSSPVFCIDNRPGFYFIPDALSLKEQCKWIKESLTSFPQPPNRTNHNAIYGPIDDLFDSAKENKVLVQDDLTNNKWKFYEEVDIEKATRSSCKSVSASVLLRKLRWSTLGLQFDWSKRNYDVSLPHNNIPDALCQLAKTHAAIAMPDGEEFRPEGAIVNYFGIGDTLGGHLDDMEADWSKPIVSMSLGCKAIFLLGGKSKDDPPHAMYLRSGDVVLMAGEARECFHGIPRIFTGEENADIGALESELSHESGHFFAEYIKTSRININIRQVF | not failed
MYFTEFLTVALIHLLAVASPGPDFAVVVRESVTHGRRAGTWTALGVGCAIFLHVGYSLLGIGLIVSQSIVLFNALKWLAAAYLLYIGYKALRAQPAKPAADDLHKEAGVRTARGAFTSGFVTNGLNPKATLFFLSLFTVVINPHTPLAIQAGYGVYLAVATAVWFCLVAMLFSQQRVRAGFARMGHWFDRTMGAVLIAIGVKLAFTEMH | failed
MYGEGDFYTIKSKRDYEFYLEADRLALGKNCKKPRLIGDDIWKFQRLLRQAEYYSNCQNSLLHKLYLKYILFRFHRMSIRLGFSIPINVFGPGLCIAHRGTIVVNKGARVGENCRIHACTNIGSGRDNIFLAPKIGNGVYIGPGAKIFGSVEIADNIAIGANSVVNRSFYERGISIAGVPAKKISNKGSDGMVIAATKTVSVPVSQETILEHHHHHH | not failed
MYGIQTSASLPLTRPQALETQAAAPQSDAPDASAGQTRAAPQGSAAPALAAARAKADELGQAAREVRASVERQTAYETRLAAQRSAAAFSGGEPPQARREAPGAELDEARNAQTVSARLFEGNLKGVAQSGHAMSAEQKQALQSGLDDVFADAPPQARSAGAPMLYSANAAAGQGMADSDLWDMISDQIGKIKDNYLGVYENVVGQYTDFYKAFSDILSQMANWIKPGGDGNKVKLNVDALKAALEKLKKDFSLGDNLDNKKAVLFPAQSKDGGIQGGSESDARKWAKEMGLPDAPPPGFSCVQKAADGNWVVVVDMTPIDTMIRDVGALGSGTELELDNAKFQAWQSGFKAQEENLKNTLQTLTQKYSNANSLFDNLVKVLSSTISSCLETAKSFLQILEHHHHHH | not failed
